Patent publication US20250320281A1

Columns and labels:
Experiment in all cases: cell-based or functional assay
[1] = biological target: HIV-1 Env of isolate 98IN022 (clade C) (HIV-1 isolate 98IN022)
[2] = biological target: HIV-1 Env of pseudovirus MGRM-Chronic-B-012 (HIV-1)
[3] = biological target: HIV-1 Env of isolate SC422661.8 (Acute), clade B, on pseudovirus (HIV-1)
[4] = biological target: HIV-1 Env of isolate 92UG024 (clade D pseudovirus) (HIV-1)
[5] = biological target: HIV-1 Env of isolate MGRM-G-006 (HIV-1)
[6] = biological target: HIV-1 94UG103 Env (pseudovirus, clade A) (HIV-1)
[7] = biological target: HIV-1 Env of isolate MGRM-D-005 (clade D pseudovirus) (HIV-1)
[8] = biological target: HIV-1 Env of isolate TRJ0.58 (Acute), clade B, on pseudovirus (HIV-1)
[9] = biological target: HIV-1 MGRM-C-026 Env (pseudovirus, clade C) (HIV-1)
[10] = biological target: HIV-1 envelope glycoprotein (Env) of isolate MGRM-A-012, clade A (HIV-1)
[11] = biological target: HIV-1 Env of isolate TRO.11 (Acute), clade B, on pseudovirus (HIV-1)
[12] = biological target: HIV-1 envelope glycoprotein (Env) of isolate 92RW026, clade A (HIV-1)
[13] = biological target: HIV-1 Env of isolate MGRM-AG-012 (HIV-1)
[14] = biological target: HIV-1 Env of isolate THR0.18 (subtype B pseudovirus) (HIV-1)
[15] = biological target: HIV-1 Env of isolate 98IN022 (HIV-1)
[16] = biological target: HIV-1 Env of isolate MGRM-Chronic-B-024 (subtype B pseudovirus) (HIV-1)
[17] = biological target: HIV-1 Env of isolate MGRM-D-002 (pseudovirus) (HIV-1)
[18] = biological target: HIV-1 Env of isolate MGRM-F1-020 (HIV-1)
[19] = biological target: HIV-1 Env of isolate MGRM-AG-011 (HIV-1)
[20] = biological target: HIV-1 Env of isolate MGRM-D-013 (pseudovirus) (HIV-1)
[21] = biological target: HIV-1 Env of isolate PVO.4 (subtype B pseudovirus) (HIV-1)
[22] = biological target: HIV-1 Env of isolate MGRM-D-024 (pseudovirus) (HIV-1)
[23] = biological target: HIV-1 93UG077 envelope glycoprotein (Env) on pseudovirus (HIV-1)
[24] = biological target: HIV-1 APV17 Env (pseudovirus, clade B) (HIV-1)
[25] = biological target: HIV-1 Env of isolate MGRM-Chronic-B-012 (subtype B) (HIV-1)
[26] = biological target: HIV-1 envelope glycoprotein (Env) of isolate MGRM-C-010 (HIV-1)
[27] = biological target: HIV-1 envelope glycoprotein (Env) of isolate MGRM-C-008 (HIV-1)
[28] = biological target: HIV-1 Env of isolate MGRM-Chronic-B-003 (subtype B) (HIV-1)
[29] = biological target: HIV-1 Env of isolate VLGCB3 (subtype B) (HIV-1)
[30] = biological target: HIV-1 Env of isolate MGRM-A-008 (subtype A) (HIV-1)
[31] = biological target: HIV-1 Env of isolate MGRM-A-004 (HIV-1)
[32] = biological target: HIV-1 Env of isolate 92RW008 (HIV-1)
[33] = biological target: HIV-1 Env of isolate MGRM-Chronic-B-023 (subtype B) (HIV-1)
[34] = biological target: HIV-1 Env of isolate NL43 (subtype B) (HIV-1)
[35] = biological target: HIV-1 Env of isolate MG RM-D-013 (HIV-1)
[36] = biological target: HIV-1 Env of isolate APV-13 (HIV-1)
[37] = biological target: HIV-1 Env of isolate MGRM-A-007 (subtype A) (HIV-1)
[38] = biological target: HIV-1 Env of isolate MGRM-AG-003 (subtype AG) (HIV-1)

Sequence of 5329_C19 (PGT-136) (antibody) (VH): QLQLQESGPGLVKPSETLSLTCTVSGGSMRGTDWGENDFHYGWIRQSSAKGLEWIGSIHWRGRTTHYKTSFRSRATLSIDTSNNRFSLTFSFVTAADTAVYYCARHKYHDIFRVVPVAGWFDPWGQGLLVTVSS
Sequence of 5329_C19 (PGT-136) (antibody) (VL): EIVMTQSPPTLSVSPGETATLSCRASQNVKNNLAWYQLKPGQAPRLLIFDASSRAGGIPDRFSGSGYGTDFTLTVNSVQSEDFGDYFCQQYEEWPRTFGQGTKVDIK
Sequence of 5345_I01 (PGT-137) (antibody) (VH): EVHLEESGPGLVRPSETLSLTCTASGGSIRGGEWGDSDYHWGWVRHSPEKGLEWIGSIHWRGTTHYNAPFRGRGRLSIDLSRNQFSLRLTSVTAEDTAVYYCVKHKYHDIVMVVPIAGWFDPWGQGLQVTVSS
Sequence of 5345_I01 (PGT-137) (antibody) (VL): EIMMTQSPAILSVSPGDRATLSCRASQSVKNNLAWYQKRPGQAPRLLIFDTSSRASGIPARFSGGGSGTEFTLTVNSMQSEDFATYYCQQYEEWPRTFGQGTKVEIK
Sequence of 4980_N08 (PGT-143) (antibody) (VH): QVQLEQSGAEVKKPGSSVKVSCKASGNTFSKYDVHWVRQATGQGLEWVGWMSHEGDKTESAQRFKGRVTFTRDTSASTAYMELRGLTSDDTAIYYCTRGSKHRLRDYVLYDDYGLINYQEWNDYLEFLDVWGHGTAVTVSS
Sequence of 4980_N08 (PGT-143) (antibody) (VL): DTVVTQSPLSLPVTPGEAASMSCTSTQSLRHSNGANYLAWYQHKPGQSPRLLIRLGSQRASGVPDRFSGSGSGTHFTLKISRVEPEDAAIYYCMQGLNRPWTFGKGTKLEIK
Sequence of 4970_K22 (PGT-144) (antibody) (VH): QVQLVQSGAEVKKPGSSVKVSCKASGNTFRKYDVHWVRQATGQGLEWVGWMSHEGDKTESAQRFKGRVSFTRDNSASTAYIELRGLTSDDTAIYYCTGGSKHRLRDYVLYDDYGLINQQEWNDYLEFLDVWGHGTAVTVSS
Sequence of 4970_K22 (PGT-144) (antibody) (VL): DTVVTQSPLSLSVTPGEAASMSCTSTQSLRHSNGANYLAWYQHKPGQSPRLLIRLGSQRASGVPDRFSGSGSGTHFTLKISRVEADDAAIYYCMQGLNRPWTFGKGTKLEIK
Sequence of 4995_E20 (PGT-142) (antibody) (VH): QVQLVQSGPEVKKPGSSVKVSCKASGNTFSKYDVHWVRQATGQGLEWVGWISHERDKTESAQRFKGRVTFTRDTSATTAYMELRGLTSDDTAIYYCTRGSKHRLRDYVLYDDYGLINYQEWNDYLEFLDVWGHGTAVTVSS
Sequence of 4995_E20 (PGT-142) (antibody) (VL): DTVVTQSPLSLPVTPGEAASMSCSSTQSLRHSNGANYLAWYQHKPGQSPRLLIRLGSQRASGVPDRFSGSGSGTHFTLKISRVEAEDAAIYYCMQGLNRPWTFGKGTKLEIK
Sequence of 4993_K13 (PGT-141) (antibody) (VH): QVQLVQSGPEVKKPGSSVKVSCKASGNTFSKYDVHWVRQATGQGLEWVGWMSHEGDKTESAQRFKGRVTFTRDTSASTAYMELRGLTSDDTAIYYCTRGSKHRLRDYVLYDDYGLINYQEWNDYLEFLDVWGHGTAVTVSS

Substance	IC50 (µg/mL), pseudovirus neutralization [5]	IC50 neutralization [6]	IC50 neutralization [9]	IC50 neutralization [24]	IC50 neutralization [25]	IC50 (µg/mL), pseudovirus neutralization [26]	IC50 (µg/mL), pseudovirus neutralization [27]	IC50 neutralization [28]	IC50 neutralization [29]	IC50 (µg/mL), pseudovirus neutralization [30]	IC50 [31]	IC50 [32]	IC50 neutralization [33]	IC50 neutralization [34]	IC50 (µg/mL), pseudovirus neutralization [35]	neutralization IC50 [36]	IC50 (µg/mL), pseudovirus neutralization [37]	IC50 (µg/mL), pseudovirus neutralization [38]	further results
1496_C09 (PG9) (TCN-109) (antibody)	1.98 µg/mL	0.31 µg/mL	0.113 µg/mL																IC50 (µg/ml), pseudovirus neutralization [1]: 0.006 µg/mL; IC50 (µg/ml), pseudovirus neutralization [2]: 0.91 µg/mL; IC50 (µg/ml), pseudovirus neutralization [3]: 0.79 µg/mL; IC50 (µg/ml), pseudovirus neutralization [4]: 1.91 µg/mL; IC50 (µg/ml), pseudovirus neutralization [7]: 0.59 µg/mL; IC50 (µg/ml), pseudovirus neutralization [8]: 0.43 µg/mL; IC50 (µg/ml), pseudovirus neutralization [10]: 11.2 µg/mL; IC50 (µg/ml), pseudovirus neutralization [11]: 5.43 µg/mL; IC50 (µg/ml), pseudovirus neutralization [12]: 0.27 µg/mL
4838_L06 (PGT-121) (antibody)																			IC50 [13]: > 50 µg/mL; IC50 (µg/mL), pseudovirus neutralization [14]: > 50 µg/mL; neutralization IC50 [15]: 0.007 µg/mL; IC50 (µg/mL), pseudovirus neutralization [16]: 0.195 µg/mL; IC50, pseudovirus neutralization [17]: 0.006 µg/mL; IC50 (µg/mL), pseudovirus neutralization [18]: 0.167 µg/mL; IC50 [19]: > 50 µg/mL; IC50, pseudovirus neutralization [20]: > 50 µg/mL; IC50 (µg/mL), pseudovirus neutralization [21]: 0.137 µg/mL; IC50, pseudovirus neutralization [22]: 0.038 µg/mL
4858_P08 (PGT-123) (antibody)		0.846 µg/mL	0.0031 µg/mL	0.18 µg/mL															IC50 [13]: > 50 µg/mL; IC50 (µg/mL), pseudovirus neutralization [14]: > 50 µg/mL; neutralization IC50 [15]: 0.011 µg/mL; IC50 (µg/mL), pseudovirus neutralization [16]: > 50 µg/mL; neutralization IC50 [23]: 0.0303 µg/mL; neutralization IC80 [23]: 0.143 µg/mL; neutralization IC90 [23]: 0.35 µg/mL; neutralization IC95 [23]: 0.78 µg/mL; IC50, pseudovirus neutralization [17]: 0.012 µg/mL; IC50 (µg/mL), pseudovirus neutralization [18]: 0.051 µg/mL; IC50 [19]: > 50 µg/mL; IC50, pseudovirus neutralization [20]: > 50 µg/mL; IC50 (µg/mL), pseudovirus neutralization [21]: 0.105 µg/mL; IC50, pseudovirus neutralization [22]: 0.023 µg/mL
4877_D15 (PGT-122) (antibody)		1.46 µg/mL	0.0089 µg/mL	0.522 µg/mL															IC50 [13]: > 50 µg/mL; IC50 (µg/mL), pseudovirus neutralization [14]: > 50 µg/mL; neutralization IC50 [15]: 0.032 µg/mL; IC50 (µg/mL), pseudovirus neutralization [16]: 2.31 µg/mL; IC50, pseudovirus neutralization [17]: 0.005 µg/mL; IC50 (µg/mL), pseudovirus neutralization [18]: 0.321 µg/mL; IC50 [19]: > 50 µg/mL; IC50, pseudovirus neutralization [20]: > 50 µg/mL; IC50 (µg/mL), pseudovirus neutralization [21]: 0.689 µg/mL; IC50, pseudovirus neutralization [22]: 0.185 µg/mL
4970_K22 (PGT-144) (antibody)	3.84 µg/mL																		
4980_N08 (PGT-143) (antibody)	0.031 µg/mL																		
4993_K13 (PGT-141) (antibody)	0.043 µg/mL																		
4995_E20 (PGT-142) (antibody)	0.019 µg/mL																		
5114_A19 (PGT-128) (antibody)					0.026 µg/mL	> 50 µg/mL	0.373 µg/mL	0.007 µg/mL	0.012 µg/mL	> 50 µg/mL	> 50 µg/mL	0.003 µg/mL	> 50 µg/mL	> 50 µg/mL	8.85 µg/mL	0.008 µg/mL	> 50 µg/mL	34.8 µg/mL	
5123_A06 (PGT-125) (antibody)		0.0124 µg/mL	0.0106 µg/mL	7.31 µg/mL															IC50 [13]: > 50 µg/mL; IC50 (µg/mL), pseudovirus neutralization [14]: > 50 µg/mL; neutralization IC50 [15]: 22.1 µg/mL; IC50 (µg/mL), pseudovirus neutralization [16]: > 50 µg/mL; IC50, pseudovirus neutralization [17]: 0.118 µg/mL; IC50 (µg/mL), pseudovirus neutralization [18]: > 50 µg/mL; IC50 [19]: > 50 µg/mL; IC50, pseudovirus neutralization [20]: > 50 µg/mL; IC50 (µg/mL), pseudovirus neutralization [21]: 0.042 µg/mL; IC50, pseudovirus neutralization [22]: > 50 µg/mL
5136_H01 (PGT-131) (antibody)					15.7 µg/mL	> 50 µg/mL	> 50 µg/mL	> 50 µg/mL	> 50 µg/mL	> 50 µg/mL	> 50 µg/mL	1.01 µg/mL	> 50 µg/mL	> 50 µg/mL	4.14 µg/mL	0.189 µg/mL	> 50 µg/mL	2.92 µg/mL	
5145_B14 (PGT-127) (antibody)																			IC50 [13]: > 50 µg/mL; IC50 (µg/mL), pseudovirus neutralization [14]: > 50 µg/mL; neutralization IC50 [15]: 19.2 µg/mL; IC50 (µg/mL), pseudovirus neutralization [16]: > 50 µg/mL; IC50, pseudovirus neutralization [17]: 0.6 µg/mL; IC50 (µg/mL), pseudovirus neutralization [18]: > 50 µg/mL; IC50 [19]: > 50 µg/mL; IC50, pseudovirus neutralization [20]: > 50 µg/mL; IC50 (µg/mL), pseudovirus neutralization [21]: 0.164 µg/mL; IC50, pseudovirus neutralization [22]: 1.95 µg/mL
5147_N06 (PGT-130) (antibody)		0.635 µg/mL	0.0173 µg/mL	> 10 µg/mL	0.373 µg/mL	> 50 µg/mL	7.28 µg/mL	> 50 µg/mL	4.6 µg/mL	> 50 µg/mL	> 50 µg/mL	0.089 µg/mL	> 50 µg/mL	> 50 µg/mL	0.429 µg/mL	0.052 µg/mL	> 50 µg/mL	0.041 µg/mL	
5329_C19 (PGT-136) (antibody)		> 10 µg/mL	0.0065 µg/mL	> 10 µg/mL	43.1 µg/mL	> 50 µg/mL	> 50 µg/mL	> 50 µg/mL	> 50 µg/mL	> 50 µg/mL	> 50 µg/mL	> 50 µg/mL	> 50 µg/mL	27.7 µg/mL	> 50 µg/mL	> 50 µg/mL	> 50 µg/mL	> 50 µg/mL	
5343_B08 (PGT-135) (antibody)		> 10 µg/mL	0.0123 µg/mL	> 10 µg/mL	0.166 µg/mL	> 50 µg/mL	> 50 µg/mL	> 50 µg/mL	0.142 µg/mL	> 50 µg/mL	> 50 µg/mL	1.42 µg/mL	0.329 µg/mL	8.03 µg/mL	> 50 µg/mL	0.716 µg/mL	> 50 µg/mL	> 50 µg/mL	
5345_I01 (PGT-137) (antibody)					> 50 µg/mL	> 50 µg/mL	> 50 µg/mL	> 50 µg/mL	3.36 µg/mL	> 50 µg/mL	> 50 µg/mL	0.148 µg/mL	> 50 µg/mL	17.4 µg/mL	> 50 µg/mL	> 50 µg/mL	> 50 µg/mL	> 50 µg/mL	
PGV04 (antibody)	0.083 µg/mL																		
VRC01 (antibody)	0.055 µg/mL																		IC50 [35]: 0.087 µg/mL; IC50 [18]: 1.89 µg/mL
